Test results published in patent US8951962B2, “Modified exendins and exendin agonists” (priority 1999, dated 2015).
pEC50: −log10 of the molar value. No end group written: not given here. PEG = not defined here

Columns and labels:
[1] = HPLC analysis of plasma for circulating metabolites after large intravenous doses; format: in vivo; conditions: plasma of animals after large intravenous doses
[2] = target: T1, GLP-1 receptor (RINm5f membranes) (Rattus norvegicus, UniProt P32301); assay: Cyclase activation study (GLP-1 Cyclase), cAMP SPA immunoassay on RINm5f membranes; format: biochemical; conditions: read-out: GLP-1 Cyclase EC50, 20 minutes at 37° C., supernatant cAMP
T1 construct: host or cells: RINm5f cells (membranes/homogenate)
T1 sequence (P32301 22-463): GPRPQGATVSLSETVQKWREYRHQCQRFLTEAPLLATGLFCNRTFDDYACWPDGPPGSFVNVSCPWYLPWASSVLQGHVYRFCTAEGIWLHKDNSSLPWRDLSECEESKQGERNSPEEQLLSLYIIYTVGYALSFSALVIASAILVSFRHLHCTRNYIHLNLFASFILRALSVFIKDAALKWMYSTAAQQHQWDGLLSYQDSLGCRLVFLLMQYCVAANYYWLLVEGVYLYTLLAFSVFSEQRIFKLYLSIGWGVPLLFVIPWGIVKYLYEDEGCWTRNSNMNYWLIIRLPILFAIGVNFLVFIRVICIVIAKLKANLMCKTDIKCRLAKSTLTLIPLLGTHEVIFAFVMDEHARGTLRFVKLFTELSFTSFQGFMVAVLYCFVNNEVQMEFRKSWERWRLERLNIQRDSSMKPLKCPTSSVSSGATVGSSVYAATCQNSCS
Procedure: All other peptides were prepared using synthesis methods such as those described herein. All chemicals were of the highest commercial grade. The cAMP SPA immunoassay was purchased from Amersham. The radioligands were purchased from New England Nuclear (Boston, Mass.). RINm5f cells (American Type Tissue Collection, Rockville, Md.) were grown in DME/F12 medium containing 10% fetal bovine serum and 2 mM L-glutamine. […] Cells were grown to confluence then harvested and homogenized using on a Polytron homogenizer. Cell homogenates were stored frozen at −70° C. until used.
Membranes and peptides was combined in […] of assay buffer in 96 well filter-bottom plates (Millipore Corp., Bedford, Mass.). After 20 minutes incubation at 37° C., the assay was terminated by transfer of supernatant by filtration into a fresh 96 well plate using a Millipore vacuum manifold. Supernatant cAMP contents were quantitated by SPA immunoassay. Peptide samples were run in the assay as triplicate points at 7 dilutions over a concentration range of 10^−6M to 10^−12M to generate response curves. The biological activity of a particular sample was expressed as an EC50 value calculated as described above.

[3] = tested on: NIH:Swiss mice; assay: Food intake (appetite suppression) in normal mice; format: in vivo; conditions: inhibition of food intake over 30 min, intraperitoneal injection, food deprived NIH:Swiss mice
Procedure: All mice (NIH:Swiss mice) were housed in a stable environment of 22 (±2)° C., 60 (±10) % humidity and a 12:12 light:dark cycle; with lights on at 0600. […] All experiments were conducted between the hours of 0700 and 0900.

Row | Substance | plasma circulating metabolites (HPLC) [1] | pEC50 [2] | Appetite Suppression ED50 [3]
1 | GLP-1 [7-36]NH2 | subpeptide degradants | – | –
2 | HGEGTFTSDLSRQMEEAVRLFIEWLRNGGPSSGAPPPK(PEG)-NH2 (reading uncertain; also: printed as HGEGTFTSDLSRQMEEAVRLFIEWLRNGGPSSGAPPPK(PEG)-NH2) [compound 229] | – | 7.22 | 0.0145 mg/kg
3 | HGEGTFTSDLSRQMEEEAVRLFIEWLRNGK(PEG)PSSGAPPPS-NH2 [224] (not fully specified; PEG linker; C-terminal amide) [compound 224] | – | 8.49 | weak
4 | HGEGTFTSDLSRQMEEEAVRLFIEWLRNGK(PEG)PSSGAPPPS-NH2 [230] (not fully specified; PEG linker; C-terminal amide) [compound 230] | – | 6.80 | –
5 | amylin: peptide hormone studied for comparison of plasma degradation (KCNTATCATQRLANFLVHSSNNFGAILSSTNVGSNTY; Islet amyloid polypeptide; UniProt P10997 34-70, looked up) | subpeptide degradants | – | –
